Data published in patent publication US12496346B2, “Phospholipid-flavagline conjugates and methods of using the same for targeted cancer therapy” (Cellectar Biosciences, Inc., priority 2019, dated 2025).

How the values were obtained:
[1] = In vivo tolerability, body weight changes; parameters: species or system C57BL/6 mice; conditions: intravenous, repeat dosing, 0.5, 1.0 or 2.0 mg/kg
Method: To determine whether CLR 1899 is tolerated in vivo, the compound was administered intravenously to healthy C57BL/6 mice at dose levels of 0.5 mg/kg, 1.0 mg/kg, or 2.0 mg/kg, and body weight changes were observed (FIG. 12). […] The in vivo efficacy of CLR 1899 was studied in MCF-7 xenograft model (FIG. 13, 10 mice per dose group). Reduction in tumor volume was recorded.

[2] = In vitro cytotoxicity of CLR 1899; type: cell-based; conditions: human, NHDF (normal dermal fibroblasts); read-out: Minimum % viability
Method: CLR 1899 was administered to cell lines A375 (human malignant melanoma), A549 (human lung adenocarcinoma), HCT 116 (human colon cancer), and NHDF (normal human dermal fibroblasts).

COC(=O)[C@H]1[C@@H](O)[C@@]2(O)c3c(OC)cc(OCCCCNC(=O)CNC(=O)CNC(=O)CNC(=O)c4ccc(CCCCCCCCCCCCCCCCCCOP(=O)([O-])OCC[N+](C)(C)C)cc4)cc3O[C@@]2(c2ccc(OC)cc2)[C@@H]1c1ccccc1 [CLR 1899]
toxicity or adverse events as measured by changes in weight [1]: no toxicity or adverse events
viability [2]: 41.7%
